The target in test [1] is human-chicken LAP-TGFβ1 chimera #2 on HT1080 cells (human/chicken chimera). Briefly: flow cytometry, transduced HT1080 cells. For orientation: A flow cytometer gives signals particle by particle.
Test [2] deals with human-chicken LAP-TGFβ1 chimera #1 on HT1080 cells (human/chicken chimera). Description: flow cytometry, transduced HT1080 cells.
Test [3] deals with fusion protein of a human IgG1 Fc domain and mouse LAP-TGFβ1 (human; mouse) (UniProt P04202). Briefly: SPR (Biacore T200), antigen-Fc captured, 1:1 model.
Sequence of fusion protein of a human IgG1 Fc domain and mouse LAP-TGFβ1 (human; mouse) (P04202 30-390 limits assumed): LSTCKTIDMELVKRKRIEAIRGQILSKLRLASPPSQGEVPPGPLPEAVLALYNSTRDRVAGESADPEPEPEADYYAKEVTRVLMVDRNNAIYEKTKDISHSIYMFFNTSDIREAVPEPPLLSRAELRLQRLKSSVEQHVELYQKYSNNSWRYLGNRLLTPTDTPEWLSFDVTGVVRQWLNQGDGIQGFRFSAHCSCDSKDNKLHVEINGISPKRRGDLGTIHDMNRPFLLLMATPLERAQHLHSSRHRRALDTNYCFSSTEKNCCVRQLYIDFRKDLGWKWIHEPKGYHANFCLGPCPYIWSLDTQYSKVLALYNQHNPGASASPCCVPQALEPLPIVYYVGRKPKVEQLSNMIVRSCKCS
The target of test [4] is fusion protein of a human IgG1 Fc domain and cynomolgus monkey LAP-TGFβ1 (human; cynomolgus monkey). Briefly: SPR (Biacore T200), antigen-Fc captured, 1:1 model. A general note: SPR reads the build-up and loss of mass on a sensor chip optically.
The target of test [5] is fusion protein of a human IgG1 Fc domain and rat LAP-TGFβ1 (human; rat) (UniProt P17246). Briefly: SPR (Biacore T200), antigen-Fc captured, 1:1 model.
Sequence of fusion protein of a human IgG1 Fc domain and rat LAP-TGFβ1 (human; rat) (P17246 30-390 limits assumed): as the sequence (P04202 30-390 limits assumed) above, with E93D, S99T, L131F, S134T, K202V counted along it
For test [6], the target named is fusion protein of a human IgG1 Fc domain and human LAP-TGFβ1 (human) (UniProt P01137). Description: SPR (Biacore T200), antigen-Fc captured, 1:1 model.
Sequence of fusion protein of a human IgG1 Fc domain and human LAP-TGFβ1 (human) (P01137 30-390 limits assumed): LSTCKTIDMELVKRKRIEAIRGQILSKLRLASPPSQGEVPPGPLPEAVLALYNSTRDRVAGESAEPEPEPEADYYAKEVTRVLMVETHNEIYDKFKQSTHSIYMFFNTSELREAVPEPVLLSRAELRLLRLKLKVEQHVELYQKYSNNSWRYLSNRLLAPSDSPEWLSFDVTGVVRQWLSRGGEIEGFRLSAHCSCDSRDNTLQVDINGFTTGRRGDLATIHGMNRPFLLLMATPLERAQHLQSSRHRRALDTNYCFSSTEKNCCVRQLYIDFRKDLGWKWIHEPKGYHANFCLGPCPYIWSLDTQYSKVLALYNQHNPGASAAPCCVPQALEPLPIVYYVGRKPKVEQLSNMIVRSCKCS
Test [7] has the same target. Description: SPR (Biacore T200), antigen-Fc captured, 1:1 model. The source holds these as a separate data set.

Where two headings read alike, the source gives them in different places.

Sequence of human-chicken LAP-TGFβ1 chimera #2 on HT1080 cells (human/chicken chimera) (chain, as listed by the source mutant limits assumed): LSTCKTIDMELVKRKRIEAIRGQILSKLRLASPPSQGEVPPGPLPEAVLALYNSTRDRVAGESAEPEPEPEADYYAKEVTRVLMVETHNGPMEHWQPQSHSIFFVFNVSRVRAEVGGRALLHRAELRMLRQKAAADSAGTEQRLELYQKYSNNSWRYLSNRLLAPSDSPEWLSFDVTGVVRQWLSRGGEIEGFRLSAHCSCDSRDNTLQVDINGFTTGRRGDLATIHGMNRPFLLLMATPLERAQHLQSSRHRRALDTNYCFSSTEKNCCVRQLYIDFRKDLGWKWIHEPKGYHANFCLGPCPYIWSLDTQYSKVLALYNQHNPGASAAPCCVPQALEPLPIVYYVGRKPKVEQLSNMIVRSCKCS
Sequence of human-chicken LAP-TGFβ1 chimera #1 on HT1080 cells (human/chicken chimera) (chain, as listed by the source mutant limits assumed): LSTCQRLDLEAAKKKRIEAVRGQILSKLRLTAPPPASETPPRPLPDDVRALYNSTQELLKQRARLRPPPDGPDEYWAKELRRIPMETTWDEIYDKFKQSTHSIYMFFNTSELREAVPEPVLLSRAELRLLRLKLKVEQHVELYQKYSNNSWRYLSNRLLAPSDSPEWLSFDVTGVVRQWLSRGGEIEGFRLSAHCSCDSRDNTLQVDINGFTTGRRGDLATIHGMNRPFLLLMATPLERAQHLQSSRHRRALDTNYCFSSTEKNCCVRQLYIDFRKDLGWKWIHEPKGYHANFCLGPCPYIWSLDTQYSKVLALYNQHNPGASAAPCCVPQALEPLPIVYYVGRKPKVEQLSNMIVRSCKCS

B1: 28G11_(hyb) (antibody, mouse IgG2b, kappa, V domains shown)
VH: EVKLVESGGGLVQPGGSLSLSCAASGFTFTDYYMSWVRQPPGKALEWLGFIRNKPNGYTTEYSASVKGRFTISRDNSQSILYLQMNVLRAEDSATYYCARYTGGGYFDYWGQGTTLTVSS
VL: DIQMTQTTSSLSASLGDRLTISCRASQDISNYLNWYQQKPDGTVKLLIYYTSRLHSGVPSRFSGSGSGTDYSLTISNLEQADIATYFCQQGDTLPWTFGGGTKLEIKR
As for B1, the % GFP+/APC+ cells in test [1] and in test [2] was 0.2% each time.

B2: humanized 20E6 F(ab′) binding protein (Fab, V domains shown)
VH: EVQLVQSGAEVKKPGASVKVSCKASGYTFTSYWMHWVRQAPGQGLEWMGRIDPQSGGIKYAQKFQGRATLTVDTSTSTAYMELSRLRSDDTAVYYCARWDYGGYFDVWGQGTLVTVSS
VL: DIQMTQSPSSLSASVGDRVTITCRASQDITNYLNWYQQKPGKAVKLLIYYTSRLHSGVPSRFSGSGSGTDYTLTISSLQPEDFATYFCQQGDTLPWTFGQGTKLEIKR
For the molecule B2, the Kd in test [3] was 48.3 nM; in test [4], 60.3 nM; in test [5], 59.4 nM; in test [6], 49.5 nM; in test [7] it was 40.8 nM. For the same molecule, the koff is 0.079 s⁻¹ in test [3]; 0.095 s⁻¹ in test [4]; 0.106 s⁻¹ in test [5]; 0.0939 s⁻¹ in test [6]; 0.08 s⁻¹ in test [7]. The kon is 1.64e+06 M⁻¹ s⁻¹ in test [3]; 1.58e+06 M⁻¹ s⁻¹ in test [4]; 1.79e+06 M⁻¹ s⁻¹ in test [5]; 1.91e+06 M⁻¹ s⁻¹ in test [6]; 1.96e+06 M⁻¹ s⁻¹ in test [7].

The term Kd denotes a measure of binding affinity in units of concentration. The koff is a measure of how fast the partners let go of each other. By kon is commonly meant the second-order rate constant of association.

These data come from patent publication US20220017612A1.
